# Measured values taken from patent US20110071089A1.
# T1: human TRPV6b expressed in LnCaP cells (transfected with pCAGS-IRES-hTRPV6b) (human), Q9H1D0
# T1 chain: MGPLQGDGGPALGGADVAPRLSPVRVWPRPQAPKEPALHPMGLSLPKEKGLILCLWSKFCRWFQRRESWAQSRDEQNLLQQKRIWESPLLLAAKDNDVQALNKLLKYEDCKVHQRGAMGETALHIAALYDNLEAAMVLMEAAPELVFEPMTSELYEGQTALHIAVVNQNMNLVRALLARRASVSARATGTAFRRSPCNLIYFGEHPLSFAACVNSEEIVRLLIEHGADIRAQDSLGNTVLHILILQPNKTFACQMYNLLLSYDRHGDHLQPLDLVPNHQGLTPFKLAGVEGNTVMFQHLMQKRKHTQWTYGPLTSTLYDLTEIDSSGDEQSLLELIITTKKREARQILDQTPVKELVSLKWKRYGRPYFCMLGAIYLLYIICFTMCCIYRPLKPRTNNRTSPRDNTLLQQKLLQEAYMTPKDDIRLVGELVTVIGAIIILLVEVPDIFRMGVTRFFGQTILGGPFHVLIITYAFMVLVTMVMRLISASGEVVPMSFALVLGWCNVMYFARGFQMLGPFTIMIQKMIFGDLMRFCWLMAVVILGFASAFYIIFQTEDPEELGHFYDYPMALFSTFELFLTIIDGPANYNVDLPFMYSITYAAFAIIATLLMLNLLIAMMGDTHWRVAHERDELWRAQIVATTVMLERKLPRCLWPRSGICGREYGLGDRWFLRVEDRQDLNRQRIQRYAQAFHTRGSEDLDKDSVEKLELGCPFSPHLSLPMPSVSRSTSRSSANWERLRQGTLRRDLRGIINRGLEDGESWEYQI
# How the values were obtained:
# [1] = biological target: T1, human TRPV6b expressed in LnCaP cells …
# [2] = biological target: T1, human TRPV6b expressed in LnCaP cells …; assay: cell-based or functional assay
binder,measurement,setting,value
KEFLHPSKVDLPR (modifications not checked) [SorC13],Kd,[1],100 nM
same,inhibition constant of calcium current (whole-cell patch clamp),[2],100 nM
EGKLSSNDTEGGLCKEFLHPSKVDLPR (modifications not checked) [SorC27],Kd,[1],140 nM
same,inhibition constant of calcium current (whole-cell patch clamp),[2],100 nM
